Values quoted from earlier work as cited in patent publication US7276335B1, “Designing compounds specifically inhibiting ribonucleic acid function” (Massachusetts Institute of Technology, priority 1993, dated 2007).

Assays:
eukaryotic 28 S rRNA = conditions: cleaves one phosphodiester bond on the 3′ side of G-4325
[1] = tested on: normal cells as well as tumor cells; conditions: too toxic for use clinically to treat tumors

B1: α-sarcin: cytotoxic protein with potent antisarcoma activity, isolated from a mold, that inactivates ribosomes by cleaving the rRNA (protein, UniProt P00655 28-177, looked up)
Ribonuclease alpha-sarcin: AVTWTCLNDQKNPKTNKYETKRLLYNQNKAESNSHHAPLSDGKTGSSYPHWFTNGYDGDGKLPKGRTPIKFGKSDCDRPPKHSKDGNGKTDHYLLEFPTFPDGHDYKFDSKKPKENPGPARVIYTYPNKVFCGIIAHTKENQGELKLCSH
For B1, the antisarcoma activity (sarcoma) is given as “potent antisarcoma activity”, the “inactivation of ribosomes by rRNA cleavage” value (eukaryotic 28 S rRNA) is given as “inactivates ribosomes by cleaving the rRNA” and the toxicity to cells [1] is given as “highly toxic to normal cells as well as tumor cells”.
